Results taken from the supplement of paper PMC10567573.

B1: MATN2 (parent)
chain: VNVPGSFVCQCYSGYALAEDGKRC
B2: SLC6A17 (parent)
chain: KAVEEELDAEDRPAWNSKLQYILA

Variants of: B1
Assay: protein stability index of a GFP-peptide fusion (GPS, HEK-293T) (PSI 1-6); higher = more stable
Details: c terminus: a fixed tail appended
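Note: lentivirally expressed fusions sorted by FACS into six bins by GFP to DsRed ratio, PSI derived from sequencing read proportions per bin multiplied by bin number.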

Protein stability index of substitutions, site by site:
G14: E 2.91 | F 2.6 | H 2.37 | I 3.06 | K 2.7 | L 3.03 | M 2.52 | N 1.56 | P 1.78 | Q 1.83 | R 2.81 | S 2.44 | T 1.69 | W 1.93 | Y 1.86
Y15: A 2.56 | C 2.77 | D 2.03 | E 2.5 | F 2.38 | G 2.14 | H 1.91 | I 2.23 | K 1.98 | L 2.19 | M 2.19 | N 2.19 | P 2.81 | Q 1.98 | R 2 | S 3.02 | T 2.33 | W 1.65
A16: C 3.35 | D 2.17 | F 2.42 | G 2.58 | H 2.77 | I 2.11 | K 1.91 | L 1.73 | M 1.79 | N 1.45 | P 1.49 | Q 1.97 | R 1.52 | S 1.84 | T 1.93 | V 1.62 | W 1.05 | Y 1.1
L17: A 2.85 | C 3.36 | D 2.51 | E 2.58 | F 1.03 | G 2.04 | H 2.27 | I 1.67 | K 1.81 | M 1.81 | N 1.91 | P 2.46 | Q 2.26 | R 2.54 | S 1.57 | T 1.75 | V 2.3 | W 1.92 | Y 2.44
A18: C 3.33 | D 2.36 | E 2.56 | F 2.48 | G 1.82 | H 2.55 | I 1.64 | K 1.73 | L 2.32 | M 1.34 | N 2.09 | P 1.65 | Q 2.38 | R 2.38 | S 1.93 | T 2 | Y 2.84
E19: A 1.93 | C 3.15 | D 1.76 | F 1.17 | G 2.83 | H 3.03 | I 2.77 | K 2 | M 2.33 | N 2.79 | P 1.54 | Q 1.75 | R 1.51 | S 1.43 | T 1.75 | V 2.29 | W 1.86 | Y 1.7
D20: A 1.9 | C 3.42 | E 1.85 | F 2.57 | G 1.48 | H 2.1 | I 2.81 | K 1.65 | L 1.11 | M 1.72 | N 1.34 | P 2.42 | Q 1.37 | R 1.58 | S 2.02 | T 2.12 | V 1.87 | W 1.57 | Y 1.05
G21: A 2 | C 4.22 | D 2.43 | E 1.84 | F 1.58 | H 2.41 | I 1.99 | K 2.03 | L 2.7 | M 3.7 | N 1.93 | P 2.38 | Q 2.75 | R 2.08 | S 2.36 | T 3.02 | V 1.88 | W 1.3 | Y 2.18
K22: A 2.6 | C 3.96 | E 2.03 | F 1.81 | G 2.43 | H 2.68 | I 1.5 | L 1.17 | M 1.23 | N 3.34 | P 2.08 | Q 1.49 | R 1.08 | S 1.7 | T 2.6 | W 1.9 | Y 1.47
R23: A 2.16 | C 2.74 | D 2.78 | E 2.78 | F 1.69 | G 2.56 | H 1.62 | I 1.67 | K 2.99 | L 2.62 | M 2.32 | N 2.23 | P 2.07 | Q 3.67 | S 2.35 | T 2.06 | V 2.41 | W 1.64 | Y 1.83
C24: A 1.73 | D 2.32 | E 1.94 | F 1.83 | G 2.18 | H 2.9 | I 2.22 | K 2.5 | L 1.86 | M 2.06 | N 2.72 | Q 2.12 | R 1.25 | S 2.14 | T 2.13 | V 3.76 | Y 2.41

Variants of: B2
Assay: as above
Details: c terminus: a fixed tail appended

Protein stability index of substitutions, site by site:
K1: A 2.65 | C 1.62 | D 2.96 | E 3.19 | F 2.71 | G 3.25 | H 2.83 | I 2.12 | L 2.08 | M 2.77 | N 3.17 | P 3.03 | Q 2.82 | R 2.34 | S 3.24 | T 2.39 | V 3.64 | W 1.74 | Y 2.05
A2: C 2.21 | D 2.65 | E 1.96 | F 1.93 | G 2.81 | H 2.24 | I 2.19 | K 2.46 | L 1.55 | M 2.43 | N 2.61 | P 2.68 | Q 3 | R 2.28 | S 2.81 | T 1.83 | V 2.23 | W 1.49 | Y 2.51
V3: A 3.18 | C 2.77 | D 3.66 | E 2.75 | F 2.29 | G 2.79 | H 1.52 | I 2.41 | K 2.94 | L 2.31 | M 2.19 | N 3.07 | P 2.58 | Q 2.91 | R 3.14 | S 2.65 | T 2.43 | W 1.7 | Y 2.2
E4: A 2.79 | C 2.31 | D 2.79 | F 1.43 | G 2.12 | H 2.24 | K 2.52 | L 3.26 | M 1.78 | N 2.63 | P 2.54 | Q 2.51 | R 2.98 | S 2.21 | T 3.27 | V 2.03 | W 1.4 | Y 1.8
E5: D 1.75 | F 1.91 | G 1.89 | H 2.32 | I 2.19 | K 2.08 | L 2.14 | M 2.05 | N 1.63 | P 2.7 | Q 1.96 | R 2.04 | S 2.51 | T 2.33 | V 2.9 | Y 1.66
E6: A 1.86 | C 2.07 | D 3.44 | F 1.73 | G 2.27 | H 2.55 | I 1.47 | K 2.7 | L 1.7 | M 1.5 | N 2.45 | P 2.53 | Q 2.68 | R 2.79 | S 2.14 | T 2.24 | V 2.13 | W 1.16 | Y 2.65
L7: A 3.74 | C 3.5 | D 3.48 | E 3.21 | F 2.23 | G 4.11 | H 3.09 | I 2.08 | K 2.85 | M 2.98 | N 3.42 | P 3.64 | Q 2.53 | R 3.53 | S 3.61 | T 3.1 | V 2.9 | Y 2.51
D8: A 3.21 | C 2.14 | E 2.64 | F 2.19 | G 2.07 | H 2.55 | I 2.57 | K 2.93 | L 1.77 | M 1.92
